Test results published in patent publication US20230365659A1 (EPSILON MOLECULAR ENGINEERING, published 2023).
Positions count from the first letter of the chain named. Names and notes keep the numbering of the source.

B1: VHH-COVE9-R108K (VHH)
VHH: AEVQLVESGGGLVQPGGSLRLSCAASGTIFSTNAMSWYRQAPGKQRELVAAITSGGNTNYADSVKGRFTISRDNAKNTVYLQMNSLKPEDTAVYYCNAPGVVTGSYDVKNYWGQGTQVTVSSGSHHHHHH
B2: VHH-COVE9-Y110S (VHH)
VHH: B1 VHH with K109R, Y111S
B3: VHH-COVE9-N109D (VHH)
VHH: B1 VHH with K109R, N110D
B4: Bacillus subtilis-derived VHH-COVE1 (VHH)
VHH: AEVQLVESGGGLVQPGGSLRLSCAASGFAFSSYPMYWVRQAPGKGLEWISFIDGEGTSTSYADSVKGRFTISRDNAKNTVYLQMNSLKPEDTAVYYCNALLRRYNYGFTFDNYWGQGTQVTVSSGGGSHHHHHH
B5: Bacillus subtilis-derived VHH-COVE4 (VHH)
VHH: AEVQLVESGGDVVQPGGSLRLSCAASGFTFTTYAMTWVRQAPGEGLEAVSTISGADGSTYYADSVKGRFTISRDNANNTVYLQMNSLKPEDTAVYYCAATPWYSASHTYWGQGTQVTVSSGGGSHHHHHH
B6: Bacillus subtilis-derived VHH-COVE8 (VHH)
VHH: EVQLVESGGGLVQPGGSLTLSCAASGQTFSSYNMAWFRQSPGKEREFVATISWGGGSTGYADSVKGRFTISRDHAKNTVYLQMKDLKPEDTGAYYCYLVGLFGIQASDYWGQGTQVTVSS
B7: Bacillus subtilis-derived VHH-COVE7 (VHH)
VHH: EVQLVESGGGLVQAGDSLRLSCTASGRTFSSCAMGWFRQAPGKEREFVAAISRGGGSTSYADSVKGRFTISKDRARNTAYLEMNSLKPEDTAIYYCYAVFPSGGDYWGQGTQVTVSS
B8: Bacillus subtilis-derived VHH-COVE5 (VHH)
VHH: EVQLVESGGGLVQAGGSLRLSCTASDQIFDNYNMAWFRQSPGKEREFVAALSWGDSNTGYADSVKGRFTISRDNAKNTVYLQMNSLKPEDTAVYYCYAVTWLRGDYWGQGTQVTVSS
B9: Bacillus subtilis-derived VHH-COVE3 (VHH)
VHH: AEVQLVESGGGFVQAGGSLRLSCRVSAPTFMTYTMAWFRQAPGNEREFVAALSKNFVTTSYADSVKGRFTISRDNAKNTVYLQMNSLKPEDTAVYYCNVAWSDYEYLEVWGQGTLVTVSSGGGSHHHHHH
B10: Bacillus subtilis-derived VHH-COVE9 (VHH)
VHH: EVQLVESGGGLVQPGGSLRLSCAASGTIFSTNAMSWYRQAPGKQRELVAAITSGGNTNYADSVKGRFTISRDNAKNTVYLQMNSLKPEDTAVYYCNAPGVVTGSYDVRNYWGQGTQVTVSS
B11: Bacillus subtilis-derived VHH-COVE2 (VHH)
VHH: AEVQLVESGGGLVQAGDSLRLSCAATRRTSSTYAMGWFRQAPGKGLEWVAAISWDGGRTYYAESVKGRFTISRDNAKNTVYLQMNSLKPEDTAVYYCYSFGGSDFLMDYWGQGTQVTVSSGGGSHHHHHH

biological target: T1, SARS-CoV-2 (2019-nCoV) spike S1-Fc recombinant protein (Sino Biological, Inc.) (SARS-CoV-2, UniProt P0DTC2 16-685); experiment: not given

| Binder | Kd [nM] | koff [s⁻¹] | kon [M⁻¹ s⁻¹] |
| --- | --- | --- | --- |
| B1 | 3.28 | 0.000437 | 133000 |
| B2 | 4.74 | 0.000683 | 144000 |
| B3 | 8.38 | 0.00106 | 126000 |

biological target: T1, SARS-CoV-2 (2019-nCoV) spike S1-Fc …; experiment: not given; remark: another data set of the same source

| Binder | Kd [nM] | koff [s⁻¹] | kon [M⁻¹ s⁻¹] |
| --- | --- | --- | --- |
| B4 | 3.63 | 0.00028 | 77000 |
| B5 | 0.997 | 0.000114 | 115000 |

biological target: Trimeric SARS-CoV-2 spike antigen full-length (Bio-Serv) (SARS-CoV-2, UniProt P0DTC2 14-1273); experiment: ELISA, VHH on nickel plate, spike in solution (0-500 ng/mL)

| Binder | absorbance (450 nm) |
| --- | --- |
| B6 | 0.97 |
| B7 | 0.97 |
| B8 | 0.97 |
| B9 | 0.97 |
| B10 | 0.97 |
| B11 | 0.97 |
